# T1: His10Smt3-tagged PNPase (P. aeruginosa, UniProt Q9HV59 1-701)
# T1 construct: Polyribonucleotide phosphorylase (PNPase), P. aeruginosa, pnp; also called His10-Smt3-PNPase; source: soluble bacterial lysates, purified (nickel-agarose)
# T1 sequence (looked up): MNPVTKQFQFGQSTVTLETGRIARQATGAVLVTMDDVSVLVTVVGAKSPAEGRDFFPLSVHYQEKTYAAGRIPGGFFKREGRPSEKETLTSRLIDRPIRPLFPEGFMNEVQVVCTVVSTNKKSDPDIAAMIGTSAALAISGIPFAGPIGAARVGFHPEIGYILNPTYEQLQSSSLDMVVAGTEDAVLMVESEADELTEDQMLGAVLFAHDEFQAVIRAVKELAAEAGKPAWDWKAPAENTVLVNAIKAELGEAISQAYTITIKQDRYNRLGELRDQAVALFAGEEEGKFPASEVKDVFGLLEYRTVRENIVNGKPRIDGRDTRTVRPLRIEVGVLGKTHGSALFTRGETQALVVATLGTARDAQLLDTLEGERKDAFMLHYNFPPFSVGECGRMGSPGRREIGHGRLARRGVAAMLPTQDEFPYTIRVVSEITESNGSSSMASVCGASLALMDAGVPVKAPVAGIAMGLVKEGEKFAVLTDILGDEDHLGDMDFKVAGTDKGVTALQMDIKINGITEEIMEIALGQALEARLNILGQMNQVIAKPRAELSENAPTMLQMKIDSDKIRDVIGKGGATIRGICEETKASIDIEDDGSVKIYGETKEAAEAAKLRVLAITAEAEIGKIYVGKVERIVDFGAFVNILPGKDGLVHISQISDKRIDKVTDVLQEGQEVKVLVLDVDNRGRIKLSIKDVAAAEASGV
# B1: T25-PNPase (enzyme, P. aeruginosa, UniProt Q9HV59 1-701, looked up)
# chain: T1 sequence (looked up)
# notes: Polyribonucleotide phosphorylase (PNPase), P. aeruginosa, pnp; source: bacterial two-hybrid fusion (pKT25), E. coli BTH101
# B2: Flag-RNase E^572-1057 (domain or fragment, P. aeruginosa, UniProt Q9HZM8 572-1057, looked up)
# chain: AAKPAETSKPAAERQTRQDERRNGRQQNRRRDGRDGNRRDEERKPREERAERQPREERAERPNREERSERRREERAERPAREERQPREGREERAERTPREERQPREGREGREERSERRREERAERPAREERQPREGREERAERPAREERQPREDRQARDAAALEAEALPNDESLEQDEQDDTDGERPRRRSRGQRRRSNRRERQREVSGELEGSEATDNAAAPLNTVAAAAAAGIAVASEAVEANVEQAPATTSEAASETTASDETDASTSEAVETQGADSEANTGETADIEAPVTVSVVRDEADQSTLLVAQATEEAPFASESVESREDAESAVQPATEAAEEVAAPVPVEVAAPSEPAATEEPTPAIAAVPANATGRALNDPREKRRLQREAERLAREAAAAAEAAAQAAPAVEEIPAVASEEASAQEEPAAPQAEEITQADVPSQADEAQEAVQAEPEASGEGAADTEHAKKTEESETSRPHA
# notes: The results call the C-terminal tag 3xFlag, the methods Twin-Strep-Flag; also called RNase E CTD with no MTS; source: soluble bacterial lysates, purified (nickel-agarose, 250 mM imidazole fraction); not shown: His10-Smt3, N-terminal, kept; Twin-Strep-Flag, C-terminal, kept
# B3: T25-RhlB (enzyme, P. aeruginosa, UniProt Q9HXE5 1-397, looked up)
# chain: MVEPQEGKTRFHDFNLAPSLMHAIHDLGFPYCTPIQAQVLGFTLRGQDAIGRAQTGTGKTAAFLISIITQLLQTPPPKERYMGEPRALIIAPTRELVVQIAKDAAALTKYTGLNVMTFVGGMDFDKQLKQLEARFCDILVATPGRLLDFNQRGEVHLDMVEVMVLDEADRMLDMGFIPQVRQIIRQTPHKGERQTLLFSATFTDDVMNLAKQWTVDPAIVEIEPENVASDTVEQHVYAVAGSDKYKLLYNLVAQNNWERVMVFANRKDEVRRIEERLTKDGISAAQMSGDVPQHKRIRTLEGFREGKIRVLVATDVAGRGIHIDGISHVINFTLPEDPDDYVHRIGRTGRAGASGTSISFAGEDDAFALPPIEELLGRKITCEMPPAELLKPVPRKH
# notes: RNA helicase RhlB, P. aeruginosa; source: bacterial two-hybrid fusion (pKT25), E. coli BTH101
# Columns and labels:
# [1] = target: T2, T18-RNase E^1-1057 (P. aeruginosa, UniProt Q9HZM8 1-1057); experiment: two-hybrid; adenylate-cyclase-based bacterial two-hybrid in E. coli BTH101 (T18 and T25 fusions); MacConkey agar with maltose and IPTG, 30°C then room temperature; β-galactosidase activity with ONPG; conditions: partners not purified
# T2 construct: source: bacterial two-hybrid fusion (pUT18C), E. coli BTH101
# [2] = target: T1, His10Smt3-tagged PNPase; experiment: pull-down; purified Flag-tagged RNase E proteins (20-25 µg) immobilised on anti-Flag M2 magnetic beads, 5 µg of PNPase or RhlB in 100 µL buffer H (50 mM Tris-HCl pH 8.0, 150 mM NaCl, 0.01% Triton X-100), 1 hour at 4 °C; SDS-PAGE, Coomassie Blue; conditions: both partners purified
binder,measurement,setting,value
B1,fold increase of β-galactosidase activity compared to empty vector controls,[1],11 fold
B2,binding result,[2],binds
B3,fold increase of β-galactosidase activity compared to empty vector controls,[1],5 fold
